# According to the supplement of paper PMC9112550, “Optimization of the antimicrobial peptide Bac7 by deep mutational scanning” (BMC Biology, 2022):
# Test system: Escherichia coli TOP10
# Assay: shrunken log2 fold change of peptide-encoding DNA abundance (4.5 h post-induction vs induction); higher = less antimicrobial activity (less host growth inhibition)
# Details: time post-induction: 4.5 h; library: site-saturation at positions 5, 18, 19, 20
# 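Note: peptides expressed intracellularly from a pBAD plasmid library in pooled LB shake-flask culture, induced with 0.3% L-arabinose, DNA abundance read by NGS, three biological replicates, DESeq2 with apeglm shrinkage.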
row,Sequence,shrunken log2 fold change
1,RRIRIRPPRLPRPRPRPDRRPRP,-0.274
2,RRIRVRPPRLPRPRPRPETHPRP,-0.0797
3,RRIRDRPPRLPRPRPRPKHAPRP,0.222
4,RRIRQRPPRLPRPRPRPLGHPRP,0.0124
5,RRIRRRPPRLPRPRPRPEYMPRP,0.0765
6,RRIRIRPPRLPRPRPRPHQYPRP,-1.31
7,RRIRERPPRLPRPRPRPLNIPRP,-0.662
8,RRIRYRPPRLPRPRPRPLPQPRP,-0.0827
9,RRIRSRPPRLPRPRPRPHKRPRP,0.0245
10,RRIRGRPPRLPRPRPRPFYRPRP,-0.26
11,RRIRPRPPRLPRPRPRPKADPRP,0.0968
12,RRIRIRPPRLPRPRPRPYPSPRP,-0.00978
13,RRIRPRPPRLPRPRPRPAFIPRP,-0.222
14,RRIRARPPRLPRPRPRPHWKPRP,-0.00664
15,RRIRARPPRLPRPRPRPPNEPRP,0.716
16,RRIRKRPPRLPRPRPRPIWCPRP,-0.0231
17,RRIRLRPPRLPRPRPRPFRTPRP,-0.0778
18,RRIRSRPPRLPRPRPRPSCNPRP,-0.377
19,RRIRRRPPRLPRPRPRPCVQPRP,0.171
20,RRIRYRPPRLPRPRPRPQCVPRP,-0.127
21,RRIRFRPPRLPRPRPRPFQCPRP,-0.0784
22,RRIRGRPPRLPRPRPRPSAGPRP,1.09
23,RRIRSRPPRLPRPRPRPTTDPRP,0.0457
24,RRIRCRPPRLPRPRPRPKVLPRP,0.0115
25,RRIRMRPPRLPRPRPRPGDQPRP,1.13

row,Sequence,shrunken log2 fold change
1,RRIRKRPPRLPRPRPRPRMEPRP,0.0104
2,RRIRWRPPRLPRPRPRPCVSPRP,0.144
3,RRIRSRPPRLPRPRPRPCNYPRP,-0.455
4,RRIRARPPRLPRPRPRPTPHPRP,0.598
5,RRIRSRPPRLPRPRPRPETLPRP,0.0893
6,RRIRKRPPRLPRPRPRPHYRPRP,0.0224
7,RRIRSRPPRLPRPRPRPWWDPRP,-0.137
8,RRIRMRPPRLPRPRPRPHMTPRP,0.342
9,RRIRQRPPRLPRPRPRPYSTPRP,-0.0896
10,RRIRCRPPRLPRPRPRPTDPPRP,0.102
11,RRIRERPPRLPRPRPRPTYRPRP,-0.0372
12,RRIRLRPPRLPRPRPRPPWDPRP,0.344
13,RRIRKRPPRLPRPRPRPYYCPRP,0.32
14,RRIRMRPPRLPRPRPRPFWEPRP,0.0748
15,RRIRCRPPRLPRPRPRPRIKPRP,0.0662
16,RRIRMRPPRLPRPRPRPVLLPRP,0.291
17,RRIRERPPRLPRPRPRPNPVPRP,-0.424
18,RRIRPRPPRLPRPRPRPFMYPRP,-0.0369
19,RRIRTRPPRLPRPRPRPIWWPRP,0.261
20,RRIRFRPPRLPRPRPRPTSMPRP,-0.00284
21,RRIRWRPPRLPRPRPRPPLLPRP,0.395
22,RRIRHRPPRLPRPRPRPQKSPRP,-0.138
23,RRIRARPPRLPRPRPRPPDGPRP,1.3
24,RRIRIRPPRLPRPRPRPAPVPRP,0.171
25,RRIRWRPPRLPRPRPRPPPFPRP,0.22

row,Sequence,shrunken log2 fold change
1,RRIRNRPPRLPRPRPRPEFHPRP,-0.0541
2,RRIRSRPPRLPRPRPRPELAPRP,0.929
3,RRIRCRPPRLPRPRPRPIPPPRP,0.265
4,RRIRARPPRLPRPRPRPMVIPRP,0.0235
5,RRIRMRPPRLPRPRPRPYCPPRP,-0.066
6,RRIRDRPPRLPRPRPRPLGWPRP,0.366
7,RRIRKRPPRLPRPRPRPRYTPRP,-0.113
8,RRIRHRPPRLPRPRPRPVNHPRP,-0.361
9,RRIRNRPPRLPRPRPRPDPDPRP,0.0692
10,RRIRLRPPRLPRPRPRPRKLPRP,-0.0264
11,RRIRPRPPRLPRPRPRPVLNPRP,-0.113
12,RRIRIRPPRLPRPRPRPVVDPRP,-0.105
13,RRIRLRPPRLPRPRPRPEVGPRP,-0.0231
14,RRIRWRPPRLPRPRPRPFAGPRP,0.0847
15,RRIRKRPPRLPRPRPRPPYDPRP,-0.0658
16,RRIRHRPPRLPRPRPRPVPCPRP,0.337
17,RRIRRRPPRLPRPRPRPDGHPRP,-0.0521
18,RRIRSRPPRLPRPRPRPWQAPRP,0.214
19,RRIRKRPPRLPRPRPRPDRTPRP,0.0739
20,RRIRSRPPRLPRPRPRPREVPRP,-0.0353
21,RRIRERPPRLPRPRPRPHWTPRP,-0.0453
22,RRIRGRPPRLPRPRPRPVRIPRP,0.536
23,RRIRIRPPRLPRPRPRPHDKPRP,-0.74
24,RRIRRRPPRLPRPRPRPAQPPRP,0.958
25,RRIRLRPPRLPRPRPRPSESPRP,-0.244

row,Sequence,shrunken log2 fold change
1,RRIRDRPPRLPRPRPRPQENPRP,0.0153
2,RRIRTRPPRLPRPRPRPSIHPRP,-0.561
3,RRIRVRPPRLPRPRPRPGDIPRP,-0.264
4,RRIRWRPPRLPRPRPRPLCSPRP,0.13
5,RRIRVRPPRLPRPRPRPQVGPRP,0.251
6,RRIRIRPPRLPRPRPRPWQHPRP,0.0851
7,RRIRNRPPRLPRPRPRPMFRPRP,-0.0515
8,RRIRFRPPRLPRPRPRPGNDPRP,-0.512
9,RRIRMRPPRLPRPRPRPVENPRP,-0.0952
10,RRIRRRPPRLPRPRPRPVRNPRP,0.146
11,RRIRLRPPRLPRPRPRPMARPRP,0.0339
12,RRIRERPPRLPRPRPRPLQIPRP,-0.0796
13,RRIRWRPPRLPRPRPRPFSYPRP,-0.203
14,RRIRIRPPRLPRPRPRPTPLPRP,0.245
15,RRIRPRPPRLPRPRPRPDLPPRP,0.315
16,RRIRFRPPRLPRPRPRPFQSPRP,-0.00947
17,RRIRSRPPRLPRPRPRPVLMPRP,-0.0465
18,RRIRERPPRLPRPRPRPWYGPRP,-1.02
19,RRIRLRPPRLPRPRPRPLAYPRP,-0.264
20,RRIRMRPPRLPRPRPRPPCIPRP,-0.143
21,RRIRWRPPRLPRPRPRPSVYPRP,0.0378
22,RRIRLRPPRLPRPRPRPMFEPRP,-0.00818
23,RRIRKRPPRLPRPRPRPKFEPRP,-0.0585
24,RRIRYRPPRLPRPRPRPFQKPRP,-0.0884
25,RRIRERPPRLPRPRPRPLDGPRP,-0.0344

row,Sequence,shrunken log2 fold change
1,RRIRERPPRLPRPRPRPMSYPRP,-0.00931
2,RRIRYRPPRLPRPRPRPHQQPRP,-0.0439
3,RRIRVRPPRLPRPRPRPYHEPRP,-0.159
4,RRIRTRPPRLPRPRPRPGILPRP,-0.0375
5,RRIRWRPPRLPRPRPRPETGPRP,0.396
6,RRIRERPPRLPRPRPRPKHGPRP,-0.017
7,RRIRTRPPRLPRPRPRPNDQPRP,-0.212
8,RRIRDRPPRLPRPRPRPFIKPRP,-0.206
9,RRIRSRPPRLPRPRPRPQKIPRP,-0.53
10,RRIRFRPPRLPRPRPRPCFRPRP,-0.45
11,RRIRIRPPRLPRPRPRPCINPRP,-0.355
12,RRIRIRPPRLPRPRPRPWNWPRP,0.0631
13,RRIRPRPPRLPRPRPRPANSPRP,0.00247
14,RRIRTRPPRLPRPRPRPRVPPRP,0.105
15,RRIRPRPPRLPRPRPRPCWHPRP,-0.261
16,RRIRWRPPRLPRPRPRPQGMPRP,-0.225
17,RRIRKRPPRLPRPRPRPNLSPRP,-0.0224
18,RRIRMRPPRLPRPRPRPAHCPRP,0.352
19,RRIRCRPPRLPRPRPRPMYKPRP,-0.471
20,RRIRQRPPRLPRPRPRPHNCPRP,0.113
21,RRIRRRPPRLPRPRPRPCATPRP,0.586
22,RRIRARPPRLPRPRPRPTLHPRP,0.584
23,RRIRYRPPRLPRPRPRPNHHPRP,-1.19
24,RRIRHRPPRLPRPRPRPGPLPRP,0.0825
25,RRIRSRPPRLPRPRPRPQMYPRP,-0.159

row,Sequence,shrunken log2 fold change
1,RRIRSRPPRLPRPRPRPKQPPRP,0.0683
2,RRIRKRPPRLPRPRPRPTYPPRP,-0.00526
3,RRIRDRPPRLPRPRPRPRPEPRP,0.538
4,RRIRSRPPRLPRPRPRPKWDPRP,0.172
5,RRIRVRPPRLPRPRPRPQGMPRP,-1.02
6,RRIRKRPPRLPRPRPRPMSQPRP,-0.0623
7,RRIRYRPPRLPRPRPRPHNRPRP,-0.245
8,RRIRNRPPRLPRPRPRPRWIPRP,0.0158
9,RRIRQRPPRLPRPRPRPGCGPRP,0.442
10,RRIRHRPPRLPRPRPRPICSPRP,0.0153
11,RRIRKRPPRLPRPRPRPSWKPRP,0.0521
12,RRIRTRPPRLPRPRPRPLQLPRP,-0.167
13,RRIRHRPPRLPRPRPRPIYDPRP,-0.436
14,RRIRRRPPRLPRPRPRPETMPRP,-0.0309
15,RRIRCRPPRLPRPRPRPEGEPRP,3.03
16,RRIRDRPPRLPRPRPRPDKDPRP,0.0428
17,RRIRRRPPRLPRPRPRPTTPPRP,0.463
18,RRIRHRPPRLPRPRPRPQQHPRP,-0.384
19,RRIRHRPPRLPRPRPRPDKRPRP,-0.0145
20,RRIRFRPPRLPRPRPRPPDFPRP,-0.195
21,RRIRQRPPRLPRPRPRPMDGPRP,-0.199
22,RRIRIRPPRLPRPRPRPHAVPRP,-0.12
23,RRIRRRPPRLPRPRPRPDPDPRP,-0.0342
24,RRIRWRPPRLPRPRPRPSGIPRP,0.146
25,RRIRSRPPRLPRPRPRPQHWPRP,0.015
